Measurements from patent US20030108554A1 (published 2003).

Molecular target: T1, purified yeast recombinant GIP90 with FLAG tag at N-terminal position and 6 histidine tail at C-terminal position
T1 chain: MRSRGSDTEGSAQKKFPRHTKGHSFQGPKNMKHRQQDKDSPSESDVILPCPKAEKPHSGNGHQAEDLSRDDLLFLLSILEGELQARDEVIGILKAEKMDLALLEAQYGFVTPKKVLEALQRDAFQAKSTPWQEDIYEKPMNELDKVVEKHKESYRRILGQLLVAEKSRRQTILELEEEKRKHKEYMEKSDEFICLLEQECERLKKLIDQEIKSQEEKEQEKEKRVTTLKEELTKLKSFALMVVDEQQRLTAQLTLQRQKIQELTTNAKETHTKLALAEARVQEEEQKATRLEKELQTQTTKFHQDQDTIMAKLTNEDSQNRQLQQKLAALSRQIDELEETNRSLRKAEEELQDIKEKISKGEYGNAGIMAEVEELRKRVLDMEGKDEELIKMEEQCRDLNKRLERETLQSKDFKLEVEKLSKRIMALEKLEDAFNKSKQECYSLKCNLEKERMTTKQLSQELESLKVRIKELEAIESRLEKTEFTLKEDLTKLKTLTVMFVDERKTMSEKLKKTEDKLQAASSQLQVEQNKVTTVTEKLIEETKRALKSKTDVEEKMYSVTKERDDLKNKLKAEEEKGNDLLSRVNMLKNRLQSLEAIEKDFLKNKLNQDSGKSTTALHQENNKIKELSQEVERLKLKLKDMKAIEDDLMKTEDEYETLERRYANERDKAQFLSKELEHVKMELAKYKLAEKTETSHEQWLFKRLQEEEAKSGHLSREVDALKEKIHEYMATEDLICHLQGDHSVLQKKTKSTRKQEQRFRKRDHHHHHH

B1: Goodpasture antigen binding protein (GPBP) (enzyme, UniProt Q9Y5P4 1-624, looked up)
chain: MSDNQSWNSSGSEEDPETESGPPVERCGVLSKWTNYIHGWQDRWVVLKNNALSYYKSEDETEYGCRGSICLSKAVITPHDFDECRFDISVNDSVWYLRAQDPDHRQQWIDAIEQHKTESGYGSESSLRRHGSMVSLVSGASGYSATSTSSFKKGHSLREKLAEMETFRDILCRQVDTLQKYFDACADAVSKDELQRDKVVEDDEDDFPTTRSDGDFLHSTNGNKEKLFPHVTPKGINGIDFKGEAITFKATTAGILATLSHCIELMVKREDSWQKRLDKETEKKRRTEEAYKNAMTELKKKSHFGGPDYEEGPNSLINEEEFFDAVEAALDRQDKIEEQSQSEKVRLHWPTSLPSGDAFSSVGTHRFVQKPYSRSSSMSSIDLVSASDDVHRFSSQVEEMVQNHMTYSLQDVGGDANWQLVVEEGEMKVYRREVEENGIVLDPLKATHAVKGVTGHEVCNYFWNVDVRNDWETTIENFHVVETLADNAIIIYQTHKRVWPASQRDVLYLSVIRKIPALTENDPETWIVCNFSVDHDSAPLNNRCVRAKINVAMICQTLVSPPEGNQEISRDNILCKITYVANVNPGGWAPASVLRAVAKREYPKFLKRFTSYVQEKTAGKPILF
notes: Protein kinase; Fusion parts are not written as pieces
^32P incorporation into GIP90 (in vitro phosphorylation with [γ^32P] ATP, Western blot and autoradiography): resulted in ^32P incorporation into GIP90
